Values belong to the substance of their own block, whether it stands above or below them.
Legend:
[1] = biological target: control protein from cells containing plasmid pUR291 (beta-galactosidase without an apolipoprotein insert) (Escherichia coli (strain K12)) [β-galactosidase: P00722]; assay: ELISA, plate coated with 1/64 dilution of the pUR291 control stock, HRPO-labeled AI-11 1:1000
[2] = biological target: control protein from cells containing plasmid pUR291 (beta-galactosidase without an apolipoprotein insert) (Escherichia coli (strain K12)) [β-galactosidase: P00722]; assay: ELISA, plate coated with 1/32 dilution of the pUR291 control stock, HRPO-labeled AI-11 1:1000
[3] = biological target: apo A-I/B-100 fusion protein expressed by plasmid 137 (beta-galactosidase / apo A-I / apo B-100) (human); assay: ELISA, plate coated with 1/2 dilution of the 137 stock (0.95 ug/100 ul), HRPO-labeled AI-11 1:1000
[4] = biological target: control protein from cells containing plasmid pUR291 (beta-galactosidase without an apolipoprotein insert) (Escherichia coli (strain K12)) [β-galactosidase: P00722]; assay: ELISA, plate coated with 1/4 dilution of the pUR291 control stock, HRPO-labeled AI-11 1:1000
[5] = biological target: control protein from cells containing plasmid pUR291 (beta-galactosidase without an apolipoprotein insert) (Escherichia coli (strain K12)) [β-galactosidase: P00722]; assay: ELISA, plate coated with 1/8 dilution of the pUR291 control stock, HRPO-labeled AI-11 1:1000
[6] = biological target: control protein from cells containing plasmid pUR291 (beta-galactosidase without an apolipoprotein insert) (Escherichia coli (strain K12)) [β-galactosidase: P00722]; assay: ELISA, plate coated with 1/16 dilution of the pUR291 control stock, HRPO-labeled AI-11 1:1000
[7] = biological target: apo A-I/B-100 fusion protein expressed by plasmid 137 (beta-galactosidase / apo A-I / apo B-100) (human); assay: ELISA, plate coated with 1/16 dilution of the 137 stock, HRPO-labeled AI-11 1:1000
[8] = biological target: apo A-I/B-100 fusion protein expressed by plasmid 137 (beta-galactosidase / apo A-I / apo B-100) (human); assay: ELISA, plate coated with 1/32 dilution of the 137 stock, HRPO-labeled AI-11 1:1000
[9] = biological target: control protein from cells containing plasmid pUR291 (beta-galactosidase without an apolipoprotein insert) (Escherichia coli (strain K12)) [β-galactosidase: P00722]; assay: ELISA, plate coated with 1/2 dilution of the pUR291 control stock (395.0 ug/100 ul), HRPO-labeled AI-11 1:1000
[10] = biological target: apo A-I/B-100 fusion protein expressed by plasmid 137 (beta-galactosidase / apo A-I / apo B-100) (human); assay: ELISA, plate coated with 1/64 dilution of the 137 stock, HRPO-labeled AI-11 1:1000
[11] = biological target: apo A-I/B-100 fusion protein expressed by plasmid 137 (beta-galactosidase / apo A-I / apo B-100) (human); assay: ELISA, plate coated with 1/4 dilution of the 137 stock, HRPO-labeled AI-11 1:1000
[12] = biological target: apo A-I/B-100 fusion protein expressed by plasmid 137 (beta-galactosidase / apo A-I / apo B-100) (human); assay: ELISA, plate coated with 1/8 dilution of the 137 stock, HRPO-labeled AI-11 1:1000
[13] = biological target: apo A-I/B-100 fusion protein expressed by plasmid 137 (beta-galactosidase / apo A-I / apo B-100) (human); assay: ELISA, plate coated with 1/4 dilution of the 137 stock, HRPO-labeled MB47 1:1000
[14] = biological target: control protein from cells containing plasmid pUR291 (beta-galactosidase without an apolipoprotein insert) (Escherichia coli (strain K12)) [β-galactosidase: P00722]; assay: ELISA, plate coated with 1/8 dilution of the pUR291 control stock, HRPO-labeled MB47 1:1000
[15] = biological target: control protein from cells containing plasmid pUR291 (beta-galactosidase without an apolipoprotein insert) (Escherichia coli (strain K12)) [β-galactosidase: P00722]; assay: ELISA, plate coated with 1/32 dilution of the pUR291 control stock, HRPO-labeled MB47 1:1000
[16] = biological target: control protein from cells containing plasmid pUR291 (beta-galactosidase without an apolipoprotein insert) (Escherichia coli (strain K12)) [β-galactosidase: P00722]; assay: ELISA, plate coated with 1/4 dilution of the pUR291 control stock, HRPO-labeled MB47 1:1000
[17] = biological target: control protein from cells containing plasmid pUR291 (beta-galactosidase without an apolipoprotein insert) (Escherichia coli (strain K12)) [β-galactosidase: P00722]; assay: ELISA, plate coated with 1/16 dilution of the pUR291 control stock, HRPO-labeled MB47 1:1000
[18] = biological target: control protein from cells containing plasmid pUR291 (beta-galactosidase without an apolipoprotein insert) (Escherichia coli (strain K12)) [β-galactosidase: P00722]; assay: ELISA, plate coated with 1/2 dilution of the pUR291 control stock (395.0 ug/100 ul), HRPO-labeled MB47 1:1000
[19] = biological target: control protein from cells containing plasmid pUR291 (beta-galactosidase without an apolipoprotein insert) (Escherichia coli (strain K12)) [β-galactosidase: P00722]; assay: ELISA, plate coated with 1/64 dilution of the pUR291 control stock, HRPO-labeled MB47 1:1000
[20] = biological target: apo A-I/B-100 fusion protein expressed by plasmid 137 (beta-galactosidase / apo A-I / apo B-100) (human); assay: ELISA, plate coated with 1/8 dilution of the 137 stock, HRPO-labeled MB47 1:1000
[21] = biological target: apo A-I/B-100 fusion protein expressed by plasmid 137 (beta-galactosidase / apo A-I / apo B-100) (human); assay: ELISA, plate coated with 1/64 dilution of the 137 stock, HRPO-labeled MB47 1:1000
[22] = biological target: apo A-I/B-100 fusion protein expressed by plasmid 137 (beta-galactosidase / apo A-I / apo B-100) (human); assay: ELISA, plate coated with 1/32 dilution of the 137 stock, HRPO-labeled MB47 1:1000
[23] = biological target: apo A-I/B-100 fusion protein expressed by plasmid 137 (beta-galactosidase / apo A-I / apo B-100) (human); assay: ELISA, plate coated with 1/16 dilution of the 137 stock, HRPO-labeled MB47 1:1000
[24] = biological target: apo A-I/B-100 fusion protein expressed by plasmid 137 (beta-galactosidase / apo A-I / apo B-100) (human); assay: ELISA, plate coated with 1/2 dilution of the 137 stock (0.95 ug/100 ul), HRPO-labeled MB47 1:1000

- Optical density at 490 nm [1]: 0.04 OD 490 nm
- Optical density at 490 nm [2]: 0.05 OD 490 nm
- Optical density at 490 nm [3]: 1 OD 490 nm
- Optical density at 490 nm [4]: 0.08 OD 490 nm
- Optical density at 490 nm [5]: 0.08 OD 490 nm
- Optical density at 490 nm [6]: 0.07 OD 490 nm
- Optical density at 490 nm [7]: 0.14 OD 490 nm
- Optical density at 490 nm [8]: 0.14 OD 490 nm
- Optical density at 490 nm [9]: 0.1 OD 490 nm
- Optical density at 490 nm [10]: 0.12 OD 490 nm
- Optical density at 490 nm [11]: 0.6 OD 490 nm
- Optical density at 490 nm [12]: 0.2 OD 490 nm
Substance: monoclonal antibody AI-11, secreted by hybridoma AI-11 (ATCC HB 9201)

- Optical density at 490 nm [13]: 0.46 OD 490 nm
- Optical density at 490 nm [14]: 0.1 OD 490 nm
- Optical density at 490 nm [15]: 0.02 OD 490 nm
- Optical density at 490 nm [16]: 0.12 OD 490 nm
- Optical density at 490 nm [17]: 0.04 OD 490 nm
- Optical density at 490 nm [18]: 0.1 OD 490 nm
- Optical density at 490 nm [19]: 0.01 OD 490 nm
- Optical density at 490 nm [20]: 0.14 OD 490 nm
- Optical density at 490 nm [21]: 0.08 OD 490 nm
- Optical density at 490 nm [22]: 0.1 OD 490 nm
- Optical density at 490 nm [23]: 0.1 OD 490 nm
- Optical density at 490 nm [24]: 1.3 OD 490 nm
Substance: monoclonal antibody MB47, secreted by hybridoma MB47 (ATCC HB 8746)
